Laboratory results taken from US8815529B2, “Sulfotransferase assay” (Research & Diagnostics Systems, Inc., priority 2011, dated 2014).

Tests used:
Assay type in all cases: biochemical
[1] = Coupling capacity of gPAPP; details: 10 mM Mg2+, pH 7.5
Description: (§1) In the following examples, the gPAPP used was recombinant mouse gPAPP expressed in CHO cells as an N-terminal His-tagged recombinant protein containing amino acids from E51 to K356, created by R & D Systems. The sequence was based on accession number NP 808398 from the National Center for Biotechnology Information. The chondroitin sulfate (CS) and p-nitrophenol (pNP) were obtained from Sigma Aldrich. The PAPS was prepared by R & D Systems using recombinant S. cerevisiae ATP sulurylase and P. chrysogenum APS kinase. The APS kinase was also prepared by R & D Systems. Recombinant human SULT1A1, CHST3, CD73, TNAP and Malachite Green Phosphate Detection Kit were from R & D Systems. Protein concentrations were quantified using the Bradford assay as described by Bradford, M. M., A rapid and sensitive method for the quantitation of microgram quantities of protein utilizing the principle of protein-dye binding. Anal Biochem. 1976. […] Phosphate levels were determined using the Malachite Green Phosphate Detection Kit available from R & D Systems, according to the package instructions. […]
In this example, the coupling capacity of gPAPP was determined. […] The coupling capacity of gPAPP was determined by combining 1 μg gPAPP with increasing amounts of PAP, in the presence or absence of 0.5 mM PAPS in 50 μL assay buffer containing 10 mM Mg^2+ at pH 7.5 for either 20 or 40 minutes. […]

[2] = gPAPP activity: Mg2+ and pH dependence; details: 0.025 μg gPAPP, 25 nmol PAP
Description: as §1
First, the activity of gPAPP in the presence of Mg^2+ was tested by combining 0.025 μg gPAPP, 25 nmol PAP and increasing amounts of Mg^2+ in 50 μL of assay buffer of 25 mM Tris at pH 7.5. […] In a second experiment, the activity of gPAPP was evaluated at various pH levels. […]

[3] = CHST3 enzyme dose curve, gPAPP-coupled assay; details: 10 mg/ml CS, 0.5 mM PAPS, 1 μg gPAPP
Description: as §1
First, the optimal concentration for CS was visually determined to be >5 mg/ml and the optimal concentration for PAPS was visually determined to be about 0.5 mM using FIGS. 10A and 10B by finding the substrate concentration corresponding to the highest point in the curves. […]

[4] = SULT1A1 enzyme dose curve, phosphatase-coupled sulfotransferase assay; details: for rate of phosphate release: 0.25 mM PAPS, 0.25 mM pNP
Description: In the following examples, the gPAPP used was recombinant mouse gPAPP expressed in CHO cells as an N-terminal His-tagged recombinant protein containing amino acids from E51 to K356, created by R & D Systems. The sequence was based on accession number NP 808398 from the National Center for Biotechnology Information. The chondroitin sulfate (CS) and p-nitrophenol (pNP) were obtained from Sigma Aldrich. The PAPS was prepared by R & D Systems using recombinant S. cerevisiae ATP sulurylase and P. chrysogenum APS kinase. The APS kinase was also prepared by R & D Systems. Recombinant human SULT1A1, CHST3, CD73, TNAP and Malachite Green Phosphate Detection Kit were from R & D Systems. Protein concentrations were quantified using the Bradford assay as described by Bradford, M. M., A rapid and sensitive method for the quantitation of microgram quantities of protein utilizing the principle of protein-dye binding. Anal Biochem. 1976. Vol 72, Page 248-254, the relevant portions of which are hereby incorporated by reference. Phosphate levels were determined using the Malachite Green Phosphate Detection Kit available from R & D Systems, according to the package instructions. All examples were performed in a buffer of 25 mM Tris at pH 7.5.
A series of reactions was performed by combining various amounts of SULT1A1 with 0.25 mM PAPS and 0.25 mM pNP and with either 1 μg gPAPP alone, or both 1 μg gPAPP and 0.1 μg CD73 in 50 μL of Tris buffer containing 10 mM of MgCl2 at pH 7.5. […] Since gPAPP and CD73 together release two equivalents of phosphate from each PAP, the specific activity of SULT1A1 was averaged to 40.0±1.9 pmol/min/μg. This specific activity is consistent with the known results obtained using radioisotope assays.

B1: gPAPP: recombinant mouse gPAPP expressed in CHO cells, N-terminal His-tagged, amino acids E51 to K356 (protein, UniProt Q80V26 51-356, looked up, fragment)
chain: EVASDGGTVDLREMLAVAVLAAERGGDEVRRVRESNVLHEKSKGKTREGADDKMTSGDVLSNRKMFYLLKTAFPNVQINTEEHVDASDKEVIVWNRKIPEDILKEIAAPKEVPAESVTVWIDPLDATQEYTEDLRKYVTTMVCVAVNGKPVLGVIHKPFSEYTAWAMVDGGSNVKARSSYNEKTPKIIVSRSHAGMVKQVALQTFGNQTSIIPAGGAGYKVLALLDVPDMTQEKADLYIHVTYIKKWDICAGNAILKALGGHMTTLNGEEISYTGSDGIEGGLLASIRMNHQALVRKLPDLEKSGH
modifications: N-terminal His tag
notes: recombinant mouse gPAPP expressed in CHO cells, N-terminal His-tagged, amino acids E51 to K356
- coupling capacity (PAP completely hydrolysed by 1 μg gPAPP) ([1]; 20 minute reaction): 8 nmol
- coupling capacity (PAP completely hydrolysed by 1 μg gPAPP) ([1]; 40 minute reaction): 15 nmol
- Mg2+ concentration at which maximum activity was achieved ([2]; 25 mM Tris pH 7.5): greater than 10 mM
- pH of optimal activity ([2]; 10 mM Mg2+): ~7.5

B2: CHST3: recombinant human carbohydrate sulfotransferase 3 from R & D Systems (protein, UniProt Q7LGC8 1-479, looked up)
Carbohydrate sulfotransferase …: MEKGLTLPQDCRDFVHSLKMRSKYALFLVFVVIVFVFIEKENKIISRVSDKLKQIPQALADANSTDPALILAENASLLSLSELDSAFSQLQSRLRNLSLQLGVEPAMEAAGEEEEEQRKEEEPPRPAVAGPRRHVLLMATTRTGSSFVGEFFNQQGNIFYLFEPLWHIERTVSFEPGGANAAGSALVYRDVLKQLFLCDLYVLEHFITPLPEDHLTQFMFRRGSSRSLCEDPVCTPFVKKVFEKYHCKNRRCGPLNVTLAAEACRRKEHMALKAVRIRQLEFLQPLAEDPRLDLRVIQLVRDPRAVLASRMVAFAGKYKTWKKWLDDEGQDGLREEEVQRLRGNCESIRLSAELGLRQPAWLRGRYMLVRYEDVARGPLQKAREMYRFAGIPLTPQVEDWIQKNTQAAHDGSGIYSTQKNSSEQFEKWRFSMPFKLAQVVQAACGPAMRLFGYKLARDAAALTNRSVSLLEERGTFWVT
- specific activity [3]: 1110 pmol/min/µg

B3: SULT1A1: recombinant human sulfotransferase SULT1A1 from R & D Systems (protein, UniProt P50225 1-295, looked up)
Sulfotransferase 1A1: MELIQDTSRPPLEYVKGVPLIKYFAEALGPLQSFQARPDDLLISTYPKSGTTWVSQILDMIYQGGDLEKCHRAPIFMRVPFLEFKAPGIPSGMETLKDTPAPRLLKTHLPLALLPQTLLDQKVKVVYVARNAKDVAVSYYHFYHMAKVHPEPGTWDSFLEKFMVGEVSYGSWYQHVQEWWELSRTHPVLYLFYEDMKENPKREIQKILEFVGRSLPEETVDFVVQHTSFKEMKKNPMTNYTTVPQEFMDHSISPFMRKGMAGDWKTTFTVAQNERFDADYAEKMAGCSLSFRSEL
- specific activity ([4]; averaged over gPAPP alone and gPAPP plus CD73): 40.0 ± 1.9 pmol/min/µg
- rate of phosphate release ([4]; coupled to both gPAPP and CD73): 83.7 pmol/min/µg
- rate of phosphate release ([4]; coupled to gPAPP alone): 38.1 pmol/min/µg
